Values of other authors, collected in US10190113B2, “Methods and compositions for segregating target nucleic acid from mixed nucleic acid samples” (FLIR DETECTION, INC., priority 2011, dated 2019).
Where a chain is given by its changes, count along the chain named. Names and notes keep the numbering of the source. Values joined by “and” are separate entries in the source; they are usually repeats but may differ in a detail not shown here. Identical values can stand only once.

Test system: nucleic acid recognition or cleavage site
Details: mutant restriction enzyme relative to wild type; cited from earlier work

B1: BamHI T153I: BamHI restriction enzyme with mutation T153I (listed twice) (protein, UniProt P23940 1-213, looked up, variant T153I)
Type II restriction enzyme …: MEVEKEFITDEAKELLSKDKLIQQAYNEVKTSICSPIWPATSKTFTINNTEKNCNGVVPIKELCYTLLEDTYNWYREKPLDILKLEKKKGGPIDVYKEFIENSELKRVGMEFETGNISSAHRSMNKLLLGLKHGEIDLAIILMPIKQLAYYLIDRVTNFEELEPYFELTEGQPFIFIGFNAEAYNSNVPLIPKGSDGMSKRSIKKWKDKVENK
In the case of B1, the “% of WT cleavage activity” value is listed as 0.1% and 1%.

B2: BamHI E135K: BamHI restriction enzyme with mutation E135K (protein, UniProt P23940 1-213, looked up, variant E135K)
Type II restriction enzyme …: B1 Type II restriction enzyme … with E135K, I153T
For B2, the “% of WT cleavage activity” value is listed as 1%.

B3: BamHI T157I: BamHI restriction enzyme with mutation T157I (protein, UniProt P23940 1-213, looked up, variant T157I)
Type II restriction enzyme …: B1 Type II restriction enzyme … with I153T, T157I
For B3, the “% of WT cleavage activity” value is listed as 1%.

B4: BamHI G130R: BamHI restriction enzyme with mutation G130R (protein, UniProt P23940 1-213, looked up, variant G130R)
Type II restriction enzyme …: B1 Type II restriction enzyme … with G130R, I153T
For B4, the “% of WT cleavage activity” value is given as 0.1%.

B5: BamHI G56S: BamHI restriction enzyme with mutation G56S (protein, UniProt P23940 1-213, looked up, variant G56S)
Type II restriction enzyme …: B1 Type II restriction enzyme … with G56S, I153T
For B5, the “% of WT cleavage activity” value is given as 1%.

B6: BamHI G194D: BamHI restriction enzyme with mutation G194D (protein, UniProt P23940 1-213, looked up, variant G194D)
Type II restriction enzyme …: B1 Type II restriction enzyme … with I153T, G194D
For B6, the “% of WT cleavage activity” value is listed as 1%.

B7: BamHI D94N: BamHI restriction enzyme with mutation D94N (protein, UniProt P23940 1-213, looked up, variant D94N)
Type II restriction enzyme …: B1 Type II restriction enzyme … with D94N, I153T
In the case of B7, the “% of WT cleavage activity” value is listed as <0.1%.

B8: BamHI T114I: BamHI restriction enzyme with mutation T114I (protein, UniProt P23940 1-213, looked up, variant T114I)
Type II restriction enzyme …: B1 Type II restriction enzyme … with T114I, I153T
For B8, the “% of WT cleavage activity” value is given as 1%.

B9: EcoRV Y72N: EcoRV restriction enzyme with mutation Y72N (protein, UniProt P04390 2-245, looked up, variant Y72N)
Type II restriction enzyme …: SLRSDLINALYDENQKYDVCGIISAEGKIYPLGSDTKVLSTIFELFSRPIINKIAEKHGYIVEEPKQQNHNPDFTLYKPSEPNKKIAIDIKTTYTNKENEKIKFTLGGYTSFIRNNTKNIVYPFDQYIAHWIIGYVYTRVATRKSSLKTYNINELNEIPKPYKGVKVFLQDKWVIAGDLAGSGNTTNIGSIHAHYKDFVEGKGIFDSEDEFLDYWRNYERTSQLRNDKYNNISEYRNWIYRGRK
In the case of B9, the “% of WT cleavage activity” value is given as <0.1%.

B10: EcoRV K92A: EcoRV restriction enzyme with mutation K92A (protein, UniProt P04390 2-245, looked up, variant K92A)
Type II restriction enzyme …: B9 Type II restriction enzyme … with N71Y, K91A
In the case of B10, the “% of WT cleavage activity” value is given as <0.1%.

B11: EcoRV D74N: EcoRV restriction enzyme with mutation D74N (protein, UniProt P04390 2-245, looked up, variant D74N)
Type II restriction enzyme …: B9 Type II restriction enzyme … with N71Y, D73N
For B11, the “% of WT cleavage activity” value is given as 1.5%.

B12: EcoRV K92Q: EcoRV restriction enzyme with mutation K92Q (protein, UniProt P04390 2-245, looked up, variant K92Q)
Type II restriction enzyme …: B9 Type II restriction enzyme … with N71Y, K91Q
In the case of B12, the “% of WT cleavage activity” value is given as 0%.

B13: EcoRV K92E: EcoRV restriction enzyme with mutation K92E (protein, UniProt P04390 2-245, looked up, variant K92E)
Type II restriction enzyme …: B9 Type II restriction enzyme … with N71Y, K91E
For B13, the “% of WT cleavage activity” value is listed as <0.1%.

B14: EcoRV I91L: EcoRV restriction enzyme with mutation I91L (protein, UniProt P04390 2-245, looked up, variant I91L)
Type II restriction enzyme …: B9 Type II restriction enzyme … with N71Y, I90L
For B14, the “% of WT cleavage activity” value is listed as <0.1%.

B15: EcoRV D90A: EcoRV restriction enzyme with mutation D90A (protein, UniProt P04390 2-245, looked up, variant D90A)
Type II restriction enzyme …: B9 Type II restriction enzyme … with N71Y, D89A
In the case of B15, the “% of WT cleavage activity” value is given as 0%.

B16: EcoRV D90N: EcoRV restriction enzyme with mutation D90N (two citations) (protein, UniProt P04390 2-245, looked up, variant D90N)
Type II restriction enzyme …: B9 Type II restriction enzyme … with N71Y, D89N
In the case of B16, the “% of WT cleavage activity” value is given as 0%.

B17: EcoRV E45A: EcoRV restriction enzyme with mutation E45A (protein, UniProt P04390 2-245, looked up, variant E45A)
Type II restriction enzyme …: B9 Type II restriction enzyme … with E44A, N71Y
For B17, the “% of WT cleavage activity” value is given as <0.1%.

B18: EcoRV D74A: EcoRV restriction enzyme with mutation D74A (protein, UniProt P04390 2-245, looked up, variant D74A)
Type II restriction enzyme …: B9 Type II restriction enzyme … with N71Y, D73A
For B18, the “% of WT cleavage activity” value is given as 0%.

B19: EcoRV E45D: EcoRV restriction enzyme with mutation E45D (protein, UniProt P04390 2-245, looked up, variant E45D)
Type II restriction enzyme …: B9 Type II restriction enzyme … with E44D, N71Y
In the case of B19, the “% of WT cleavage activity” value is given as <0.3%.

B20: EcoRV D74E: EcoRV restriction enzyme with mutation D74E (protein, UniProt P04390 2-245, looked up, variant D74E)
Type II restriction enzyme …: B9 Type II restriction enzyme … with N71Y, D73E
For B20, the “% of WT cleavage activity” value is listed as 0%.

B21: EcoRV P73A: EcoRV restriction enzyme with mutation P73A (two citations) (protein, UniProt P04390 2-245, looked up, variant P73A)
Type II restriction enzyme …: B9 Type II restriction enzyme … with N71Y, P72A
In the case of B21, the “% of WT cleavage activity” value is listed as <0.1% and 1%.

B22: EcoRV E45Q: EcoRV restriction enzyme with mutation E45Q (protein, UniProt P04390 2-245, looked up, variant E45Q)
Type II restriction enzyme …: B9 Type II restriction enzyme … with E44Q, N71Y
In the case of B22, the “% of WT cleavage activity” value is listed as <0.3%.

B23: EcoRV K92R: EcoRV restriction enzyme with mutation K92R (protein, UniProt P04390 2-245, looked up, variant K92R)
Type II restriction enzyme …: B9 Type II restriction enzyme … with N71Y, K91R
For B23, the “% of WT cleavage activity” value is listed as 0%.

B24: EcoRV D90T: EcoRV restriction enzyme with mutation D90T (protein, UniProt P04390 2-245, looked up, variant D90T)
Type II restriction enzyme …: B9 Type II restriction enzyme … with N71Y, D89T
For B24, the “% of WT cleavage activity” value is given as 0%.

B25: EcoRV P73T: EcoRV restriction enzyme with mutation P73T (protein, UniProt P04390 2-245, looked up, variant P73T)
Type II restriction enzyme …: B9 Type II restriction enzyme … with N71Y, P72T
For B25, the “% of WT cleavage activity” value is given as 0%.

B26: BsoBI I95M: BsoBI restriction enzyme with mutation I95M (protein, UniProt P70985 2-323, looked up, variant I95M)
Type II restriction enzyme …: NTQKPFENHLKSVDDLKTTYEEYRAGFIAFALEKNKRSTPYIERARALKVAASVAKTPKDLLYLEDIQDALLYASGISDKAKKFLTEDDKKESMNNLIENFLEPAGEEFIDELIFRYLLFQGDSLGGTMRNIAGALAQQKLTRAIISALDIANIPYKWLDSRDKKYTNWMDKPEDDYELETFAKGISWTINGKHRTLMYNITVPLVKKNVDICLFNCEPEIYTPQKVHQQPEKYLLLGELKGGIDPAGADEHWKTANTALTRIRNKFSEKGLSPKTIFIGAAIEHSMAEEIWDQLQSGSLTNSANLTKTEQVGSLCRWIINI
For B26, the “% of WT cleavage activity” value is listed as <0.1%.

B27: BsoBI G123R: BsoBI restriction enzyme with mutation G123R (protein, UniProt P70985 2-323, looked up, variant G123R)
Type II restriction enzyme …: B26 Type II restriction enzyme … with M94I, G122R
For B27, the “% of WT cleavage activity” value is listed as <0.1%.

B28: BsoBI D124Y: BsoBI restriction enzyme with mutation D124Y (protein, UniProt P70985 2-323, looked up, variant D124Y)
Type II restriction enzyme …: B26 Type II restriction enzyme … with M94I, D123Y
For B28, the “% of WT cleavage activity” value is listed as <0.1%.

B29: BsoBI K209R: BsoBI restriction enzyme with mutation K209R (protein, UniProt P70985 2-323, looked up, variant K209R)
Type II restriction enzyme …: B26 Type II restriction enzyme … with M94I, K208R
For B29, the “% of WT cleavage activity” value is given as <0.1%.

B30: BsoBI D212N: BsoBI restriction enzyme with mutation D212N (protein, UniProt P70985 2-323, looked up, variant D212N)
Type II restriction enzyme …: B26 Type II restriction enzyme … with M94I, D211N
In the case of B30, the “% of WT cleavage activity” value is given as <0.1%.
